The source of these data is publication PMC4072508, “Genome-Wide Prediction and Validation of Peptides That Bind Human Prosurvival Bcl-2 Proteins” (PLoS Computational Biology, 2014).

This assay deals with PXT1 BH3-like peptide (human). The experiment in a line: fluorescence polarisation; direct binding: 10 nM FAM-labeled peptide, receptor serially diluted; 25°C; 20 mM NaPO4, 50 mM NaCl, 1 mM EDTA, 0.001% Triton X, pH 7.8; single-site binding model.

B1: Bfl-1 (natural protein)
chain: MTDCEFGYIYRLAQDYLQCVLQIPQPGSGPSKTSRVLQNVAFSVQKEVEKNLKSCLDNVNVVSVDTARTLFNQVMEKEFEDGIINWGRIVTIFAFEGILIKKLLRQQIAPDVDTYKEISYFVAEFIMNNTGEWIRQNGGWENGFVKKFEPKSGWMTFLEVTGKICEMLSLLKQYC
Broadly, the Kd is the constant that tells how readily two partners part at equilibrium. B1 returned a Kd of less than 30 nM.
